{"source": "the DeepSol protein solubility set"}
{"experiment": "soluble on expression in E. coli; label from the status in PepcDB or PDB records"}
{"sequence": "MSTVGGIEQLIPDSVSTSFIETVNGSHQFTIQGYSLAKGMSPGKFIQSDIFSVGGYDWAIYFYPDGKNPEDQSSYISLFIALASDSNDIRALFELTLMDQSGKGKHKVHSHFDRALEGGPYTLKYKGSMWGYKRFFKRSALETSDYLKDDCLVINCTVGVVRARLEGPKQYGIVLPLSNMGQGLKDLLDSEVGCDIAFQVGDETYKAHKLILAARSPVFRAQFFGPIGNNNVDRIVIDDIEPSIFKAMLSFIYTDVLPNVHEITGSTSASSFTNMIQHLLAAADLYDLARLKILCEVLLCEKLDVDNVATTLALAEQHQFLQLKAFCLEFVASPANLGAVMKSEGFKHLKQSCPTLLSELLNTVAAADKSSTSGQSNKKRSASSVLGCDTTNVRQLRRRTRKEVRAVS", "soluble on expression in E. coli": "not soluble"}
{"sequence": "MSLARTNVMIAETFPEYLVDHNLIDCEVESLCNGMVRYEKRPARRRDGSVAEGLYNAWIIFNNPRQYNSYTTEMVKATILAFRRASVDREVNAVVFTGVGDKAFCTGGNTKEYAEYYAGNPQEYRQYMRLFNDMVSSILGCDRPVICRVNGMRIGGGQEIGMACDFSIAQDLAKFGQAGPKHGSAAIGGATDFLPIMIGCEQAMVSGTLCEPFSAHKAARLGIIADVVPALKVGGTFVANPTVVTDRFLDEYGRVVQGEFKTGADFKAGQARIKEGEVDLSLLDEKVEELCAKLLETFPECMTKSLEELRKPKLQAWNLNKENSRAWLALNMMNEARIGFRAFNEGTKETGREIDFVKLRRQLAEGTPWAEELIEEGHHHHHH", "soluble on expression in E. coli": "soluble"}
{"sequence": "MGSDKIHHHHHHVVDSLQQWQEVEAVLADLSQASQEHHYRQTHRLVQDYLDRLQLSPREQQGLEPLLKSLERMQAKLEQQVLHIAVFGLVGRGKSSLLNALVGETVFETGAIHGVTTAIATAAWPLTTDEDGVQRLRWSGLGDVQVELIDTPGIDEIDGDQREALAKRVAQQADLILFVVSGDISQLEQDTLTVLHQAHKPLLLVLNKADQYSDRDREAIRNKLADERLRHLISIDEIVTVAAAPRQAEPEYDGDRLVGTKLVSLPPQVEPLRQRIITLLLHEGQSLLALNALLQMAMVDRQVVRRKLQSRDRQAEELIWRFAIAKGMAVAINPISFVDLLGGAAIDVALILQLSQLYDLPIGEGKAIALLRTIAVGMGSLGLGEGLVRVGLSALKGLMGVAAPVSGGLSLGVYVPVALTQAGIGGFATYAIGQVTKAYLANGADWGPEGAGLLTQQILDSLDEAAILQRLRGEIDRRLRLKQL", "soluble on expression in E. coli": "not soluble"}
{"sequence": "MASIELRNVQTELAAKNLQFKVLTEKFLEQRKELFDAKKTDSNVEYVECLSEKLRVATERISDLEKETKEGKQVANEEIGRLEKLLREAQQKRDAKIDESYQTFLRIELLVANLGESTDPENEKRIKNLMPAAKTGIPPEGVLRLTINALDSAARESKKKTMAIESLTKQVDDANKLTEVYMKRLEELEDKHRFEEALTLKIQAMMIETTGQLEAQKKIIADLQKKNDDLMKEEEGEEDYEEEENYEVEEDFEDEEEYDEEGEEEDYE", "soluble on expression in E. coli": "not soluble"}
{"sequence": "MGSDKIHHHHHHAELPAGTVIDKANLDKIKSDTFDGHTIASLLTDKLEWQIRNTGLKIPLGHAKPVQLDPKYIEATKKNAGKAQFDEKSREVTGWVAGIPFPEVSQNDPFAGDKLVWNFYYASPEGDVINNKATFLMISGDKGLESTQDWLFERYYMKGRISGDKPVLGDGSILSKTLFVATAPEDIKGVGTFTIRYDSPKLEDSWAYIKSARRTRRLSGGAWMDPVGGLDVLNDDIYVWNARPSWYPKVKLVGRRWILAISDAKLGYNASKKGTPEEWKTVDLSNPPYWNPVQTWQPREVWVIEGTPPAEHPYGKKVVYMDVNYPRVYMGEAYDKKGEFWKFINFHMTPSVGEDGTKYSSSIQGDIIDFKARHASIYLFRGYKLNEAKIKETDMSYSALESIAK", "soluble on expression in E. coli": "not soluble"}
{"sequence": "MRGGMGNMQKMMKQMQKMQKDMAKAQEELAEKVVEGTAGGGMVTVKANGQKEILDVIIKEEVVDPEDIDMLQDLVLAATNEALKKVDEITNETMGQFTKGMNMPGLF", "soluble on expression in E. coli": "soluble"}
{"sequence": "MGSDKIHHHHHHMKIILTTSMSGLGGTETATVRLGRLLKRHGHDIILASSDGPFVGEAQASGIRWQPVDFYRGGLAGYLKSTFAYARMLRREQPDIIDCQMARVVPACALAAKIVSPKTKIICHSHGLDAATYPKTAKLFDKLGAYIIGNCKHEREKLIRHGFPAGRIAYAYNTPPEFHFRKTEKECAVLGTLSRLDTVRAVHLMLDILKKMVGRNIPVRLNMAGIGEEMDNLKAQAKRLGIEDKVTFLGGVRDLTGYFKEVDILVNTPHCVGDHGAGVGNNILEAGLYDTPVVTYNMAGISEMVITGQTGYCIPFGDDEAFIEAVDTLIKHPELRSQMGKALHKHVETLCSDDEIYRTTMAAYEM", "soluble on expression in E. coli": "not soluble"}
{"sequence": "LSFYHPEDRETVSDAVDAALNDGDPYDLEVRLITARGNHRWVRTRGKRVEGAEKPTVRGFIQDITEQKER", "soluble on expression in E. coli": "not soluble"}
{"sequence": "MGSDKIHHHHHHMDQEKTPLLDALKGYVEENVIPFHVPGHKQGRGNPELRKYIGSKVLKMDVNGMKELDYIGNPSGVIAEAQHLCAEAFGAEQAYFLVNGTSSGVQAMIMSACNPGNEIIIPRNAHKSTIGAIILSGAIPVYVQPQVNKVLGIATGVSAESIQKAIEEHPQAKAVFIINPSYYGIHSDLKSIVEISHQANMTVLADEAHGAHLYFHPEFSLNAIEAGADMSAVSLHKTGGAMTQSSVLLHQGDRISVDRVKQVLQLSYTSSASYILMLSIDVARKQLATRGQLLLNKTLALARQARQELNDIEDIYAFGKELIGSPGCADFDETKLGIHVRKLGLTGYQIERILRERYKIQIEFSDIYNALAIVSLGDRRENLRKLVAAFREIADERETKDASKWFNIPFCPEMIVTPRDAFYSPKRIVPLELSSGEISGEMIMAYPPGIPVICMGERITQEIIEYIQLLQVEGCELQGATDAGINHIKVLGSALPQASVSKSVSPSRSAYQEIPVYLSP", "soluble on expression in E. coli": "not soluble"}
{"sequence": "MHRSFGNLEFFRFQLSNQCPALQNIELEVPMHIERLDISEFGVEINRTSYAFQVKTDEEIDQTFDVDEFGMIDYDLVVDQNPDTILLDNRDPSNMHLELSYELQLLQNEYDRIEGLNGNDGIEDIEGLAKAREALEKRKTRYQFKYLKLMAREMGIKSQISIAREPLDQHIRFSINSPDRVPLYEEHLAYNKKIHEAQRSLLEKLFVGRPTICVKSLFIDSCFIVCIPKNMQFKVKHLSLSCNNFDEDLNAIRPLLHVSSFPLESIEVYGKWDSLDPILKTCGVLYFPGGCKIEKLLKLQNFHRKVHVNIFDALKQLPPSVKSWLENRQEIGTEYTFDISNEDQIILFLDEMKESNADRIVDEAELHVKLRMDNSTELYISYDPARDNVGRMKMKFQVQ", "soluble on expression in E. coli": "not soluble"}
{"sequence": "MEWAMNEHHQPFEEIRHYGTEGQEFWSARELAPLLDYRDWRNFQKVLARATQACEASNQAASDHFVETTKMVVLGSGAQRELEDVHLSRYACYLVVQNGDPAKPVIAAGQTYFAIQTRRQELADDEAFKQLREDEKRLFLRNELKEHNKQLVEAAQQAAVATATDFAIFQNHGYQGLYGGLDQKAIHQLKGLKKSQKILDHMGSTELAANLFRATQTEEKLKRDGVNSKQQANTTHFDVGSKVRQTIQELGGTMPEELPTPQVSIKQLENSVKITEKK", "soluble on expression in E. coli": "not soluble"}
{"sequence": "MGSDKIHHHHHHLNAKIVCVSNKQLTISLDDFSGPLDLLLHLIRTQELDIFDLPIAKVTDQFLSFIDNQLNPSLDSAGEYLYMASTLIRIKSRFLLPTVKNEQEDEKEEDPRNELVNALIEYECYQAVTQDMSELEHSRSLSFTRPVAKIPENIEIKPLSAGVTLQDLQKAFLEIANRQKDLHPKKRTIERENFSVADKINEIKTFFGQKKLDSKIEFQYLFKLSSSNDEMITTFLAILELAKDHFILLSQNDEQQIFLTKGEMNA", "soluble on expression in E. coli": "not soluble"}
{"sequence": "MVKSQPILRYILRGIPAIAVAVLLSACSTTTNTAKNMHSETHAVGNSDSSSLQASQDEFENMVRNLDVKSRIMDQYADWKGVRYRLGGSTKKGVDCSSFVQRTFREQFGLELPRSTYEQQEMGKAVSRNNLRTGDLVLFRAGSTGRHVGIYIGNNQFVHASTSSGVIISSMNEPYWKKRYNEARRVLSRS", "soluble on expression in E. coli": "not soluble"}
{"sequence": "MSLEMLGIDVVIPDISYLIERADRVKAIFLTHGHDENIGGVFYLLNKLSVPVYGTKLTLALLREKLKQYGHNRKTDLREIHSKSVITFQSTKVSFFRTIHSIPDSVGVSFKTSLGSIVSAGDFKFDQTPALNQTCDIGEIAKIGNSGVLALLSDSANVERPGYTPSEAAVSGEISDALYNSQNRVIIAVFASNINRIQQVIHAAAQNGRKIAVAGKNLQSVLQLARKLGYIEADDELFISVQDVKKYPKREVAIITAGSQGEPLAALTRMANKAHKQLNIEEGDTVVIASTPIPGQELIYSKTVDLLARAGAQVIFAQKRVHVSGHGSQEELKLMINLLKPKYLIPVNGEYRMQKAHSKIAEETGMKRSDIFLIEKGDVVEFRGQNVKIGDKVPYGNILIDGLGVGDIGNIVLRDRRLLSQDGILEGHHHHHH", "soluble on expression in E. coli": "not soluble"}
{"sequence": "METSKEFEFRPAKETSRSKSPGGIVGRLSNFARNKARHSLSEKGSNSVGGSGGAGFDKPRKDLLKEFHKCKEAQDQRLDLSSIEITSIPSPIKELTQLTELFLYKNKLTCLPTEIGQLVNLKKLGLSENALTSLPDSLASLESLETLDLRHNKLTEVPSVIYKIGSLETLWLRYNRIVAVDEQIGNLSKLKMLDVRENKIRELPSAIGKLTSLVVCLVSYNHLTRVPEEIGDCHSLTQLDLQHNDLSELPYSIGKLVNLVRIGIRYNKIRCIPSELESCQQLEEFIVESNHLQLLPPNLLTMLPKIHTVNLSRNELTAFPAGGPQQFVSTVTINMEHNQISKIPIGIFSKATRLTKLNLKENELVSLPLDMGSWTSITELNLSTNQLKVLPEDIEKLVNLEILVLSNNQLKKLPNQIGNLNKLRELDLEENELETVPTEIGFLQHLTKLWVQSNKILTLPRSIGNLCSLQDLRLGENNLTAIPEEIGHLDSLKSLYLNDNSSLHNLPFELALCQSLEIMSIENSPLSQIPPEITAGGPSLVIQYLKMQGPYRGVVMNSQ", "soluble on expression in E. coli": "not soluble"}
{"sequence": "MGSDKIHHHHHHMAVKRAYYGNDGDRDYFERVFQSANINFLIGSGASLPAINVLGTIENDLQQLINDEKEDEYFNMAAGFLSAVWLPHEYILDRGNDVAFPPPVISNVDYTRKNYDAFISSLEKILTRRRTGLLPRRINVFTTNYDLFIEEAATRNNNILFNDGFNKRMNVWGDEEFDAGSFNYSVSATGNLYNYKVELPTVNLIKLHGSFSWKHYKGRIIYNIGEKKPLNFATPAEMKKWVLAHALILPRKEKFKETLLQNVYYDLLRTYSNELDKEATLLVVFGFSFADEHLEMLTKKALRNATLKLLIFAFNEASVGGFMENFRDYSNVEIIYRPGGNVDFPVMNNIITCYLGGAR", "soluble on expression in E. coli": "not soluble"}
{"sequence": "MAHHHHHHMAESAVLTPLSARHTVSPRDRSALATGISTLSSPTEETIEVDGATTTPSLPPETRVNVTEKLSDDGAERWPGDPEPPSQGCVASSSAANAHLPISSPALVRDEGHAHITAADYADRQRLLYHITYLSTQLQRAQLQVEDLTRTVCVLRGAVGDSAAATVAKAAVKEDATSAAVLAAKEERDVHAALQASLALFDPVIAQTQIYRLDDALAQVGLLREAELAQLRKANAALQDHRTFVSRLSEELAQLRSKTATLEQEKQRTETQLTAAVLEVEQLRYEERRLNNRVAGLEELAQDGTWMSNVRVVSAAAASTQASVSQQQPLVRLEREEQLARQALLLHVFWDPVLIAFDAGLTWLSDSAALQAKGSAAQEQPVAPGGAKAFVGERDLISLAQAGILVETPALPTDADLLLLQRQQEEVTQLRSRVQLLQERNRVGQLENERLQFLYEGEVRRNERMAKDHAAQLQQAYDEVVRDRQYIMNKLKQEVEDQIRLAYEDGRAYEQSRAKSRRSQKAFRAGNAVL", "soluble on expression in E. coli": "not soluble"}
{"sequence": "MAHHHHHHMSLSIHTNYGDIKIELFCYEVPKTCKNFLALCASGYYDNTKFHKNIKGFAIQGGDPTNTGKGGQSIYGKYFEDEFDSTLKHDKRGIVSMANKGKPNTNGSQFFITYSRQPHLNGIYPVFGKVIDGMDVLSVLENEPVGEKSRPIKDIIIETITIHANPIAEEESVDN", "soluble on expression in E. coli": "not soluble"}
